From patent US12194076B2, “Methods and compositions for treating myelofibrosis” (Acceleron Pharma Inc., priority 2016, dated 2025)
Numbering of substitutions follows the chain as printed. In names and notes the source's numbering stands.

Experiments:
[1] = target: T1, GDF11 (Homo sapiens, UniProt O95390); assay: Biacore steady-state affinity of ActRIIB-hFc proteins for GDF11; format: binding; details: compared to counterparts lacking the L79D substitution
T1 sequence (O95390 299-407): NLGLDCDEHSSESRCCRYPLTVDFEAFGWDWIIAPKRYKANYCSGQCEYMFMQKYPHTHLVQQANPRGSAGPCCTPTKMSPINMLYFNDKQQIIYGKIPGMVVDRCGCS
Description: (§1) Affinities of several ligands for ActRIIB(25-131)-hFc and its full-length counterpart ActRIIB(20-134)-hFc were evaluated in vitro with a Biacore™ instrument, and the results are summarized in the table below. Kd values were obtained by steady-state affinity fit due to very rapid association and dissociation of the complex, which prevented accurate determination of kon and koff. ActRIIB(25-131)-hFc bound activin A, activin B, and GDF11 with high affinity.
(§2) The affinity of GDF traps and other ActRIIB-hFc proteins for several ligands was evaluated in vitro with a Biacore™ instrument. Kd values were obtained by steady-state affinity fit due to the very rapid association and dissociation of the complex, which prevented accurate determination of kon and koff.

[2] = target: T2, BMP10 (Homo sapiens, UniProt O95393); assay: Biacore ligand binding of GDF trap, BMP10
T2 sequence (O95393 317-424): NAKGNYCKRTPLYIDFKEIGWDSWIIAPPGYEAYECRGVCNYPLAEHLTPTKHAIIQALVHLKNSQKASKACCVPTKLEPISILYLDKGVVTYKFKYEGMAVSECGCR
Description: as §2

[3] = target: T3, Activin A (Homo sapiens, UniProt P08476); assay: Biacore steady-state affinity of ActRIIB-hFc proteins for activin A; format: binding; details: compared to counterparts lacking the L79D substitution
T3 sequence (P08476 311-426): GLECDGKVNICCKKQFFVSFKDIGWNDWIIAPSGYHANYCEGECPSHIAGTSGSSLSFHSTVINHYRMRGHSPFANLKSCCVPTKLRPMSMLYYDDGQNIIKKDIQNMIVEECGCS
Description: as §1, §2

[4] = target: T4, GDF8 (Homo sapiens, UniProt O14793); assay: Biacore ligand binding of GDF trap, GDF8
T4 sequence (O14793 267-375): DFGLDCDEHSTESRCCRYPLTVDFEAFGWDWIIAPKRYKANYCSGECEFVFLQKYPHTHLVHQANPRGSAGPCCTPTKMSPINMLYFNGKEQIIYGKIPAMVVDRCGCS
Description: as §2

[5] = target: T5, Activin B (Homo sapiens, UniProt P09529); assay: Biacore steady-state affinity of ActRIIB-hFc proteins for activin B; format: binding; details: compared to counterparts lacking the L79D substitution
T5 sequence (P09529 293-407): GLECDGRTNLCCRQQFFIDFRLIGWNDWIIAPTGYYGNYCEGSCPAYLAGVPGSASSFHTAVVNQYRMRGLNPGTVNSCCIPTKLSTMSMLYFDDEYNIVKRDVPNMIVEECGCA
Description: as §1, §2

[6] = target: T6, BMP6 (Homo sapiens, UniProt P22004); assay: Biacore ligand binding of GDF trap, BMP6
T6 sequence (P22004 375-513): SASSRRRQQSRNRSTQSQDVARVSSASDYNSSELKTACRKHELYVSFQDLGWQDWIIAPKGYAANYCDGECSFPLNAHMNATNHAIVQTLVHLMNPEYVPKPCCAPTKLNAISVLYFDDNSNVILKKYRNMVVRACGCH
Description: as §2

[7] = system: C57BL/6 mice; assay: GDF trap in ruxolitinib treated animals, hematological parameters; format: in vivo; details: 60 mg/kg twice daily, four weeks
From the text: Ruxolitinib is a Janus kinase inhibitor that has been approved for the treatment of intermediate or high-risk myelofibrosis. […] However, a variety of hematological side effects have been observed in patients treated with ruxolitinib including, for example, anemia. Nine month old C57BL/6 mice were used to understand the effects of ActRIIB(L79D 25-131)-Fc treatment on various hematological parameters in ruxolitinib treated mice.
For this study, treatment was initiated at 6-7 months of age. Mice were placed into one of four groups: i) treatment with ActRIIB(L79D 25-131)-Fc on a dosing schedule of 10 mg/kg twice weekly; ii) treatment with ruxolitinib on a dosing schedule of 60 mg/kg twice daily; iii) treatment with ActRIIB(L79D 25-131)-Fc on a dosing schedule of 10 mg/kg twice weekly and ruxolitinib on a dosing schedule of 60 mg/kg twice daily; and iv) treatment with vehicle (TBS) twice weekly (i.e., control animals).

[8] = system: anemic myelofibrosis patients; details: cited from earlier work
[9] = target: T1, GDF11; details: ligand coupled to the device; reproduced from WO2006/012627; cited from earlier work
[10] = Serum half-life in rats; format: in vivo
Description: Several variants have been assessed for serum half-life in rats. ActRIIB(20-134)-Fc has a serum half-life of approximately 70 hours. […] Any of the variants tested above, may be combined with the GDF trap molecules.

[11] = target: T1, GDF11; assay: Affinity/binding of ActRIIB-Fc fusion proteins for GDF11; details: ActRIIB-Fc fusion protein, position 64 variant
[12] = system: activin; assay: Affinity/binding of ActRIIB-Fc fusion proteins for activin; details: ActRIIB-Fc fusion protein, position 64 variant
[13] = target: T4, GDF8; assay: A-204 reporter gene assay, inhibition of GDF-8 activity; format: cell-based; parameters: host or cells: added to A-204 cells (human rhabdomyosarcoma)
[14] = target: T4, GDF8; assay: Biacore assay, receptor captured with anti-hFc antibody, GDF8 injected; format: binding; details: receptor captured via anti-hFc antibody
Description: (§3) Binding of certain ActRIIB-Fc proteins and GDF traps to ligands was tested in a Biacore™ assay.
(§4) The ActRIIB-Fc variants or wild-type protein were captured onto the system using an anti-hFc antibody. Ligands were injected and flowed over the captured receptor proteins.

[15] = target: T3, Activin A; assay: Biacore assay, receptor captured with anti-hFc antibody, activin A injected; format: binding; details: receptor captured via anti-hFc antibody
Description: as §3, §4

[16] = target: T3, Activin A; assay: A-204 reporter gene assay, inhibition of activin A signaling; format: cell-based; parameters: host or cells: added to A-204 cells (human rhabdomyosarcoma)
From the text: (§5) An A-204 reporter gene assay was used to evaluate the effects of ActRIIB-Fc proteins and GDF traps on signaling by GDF-11 and activin A. Cell line: human rhabdomyosarcoma (derived from muscle). Reporter vector: pGL3(CAGA)12 (described in Dennler et al, 1998, EMBO 17: 3091-3100). The CAGA12 motif is present in TGF-beta responsive genes (e.g., PAI-1 gene), so this vector is of general use for factors signaling through SMAD2 and 3.
(§6) Day 1: Split A-204 cells into 48-well plate.
(§7) Day 2: A-204 cells transfected with 10 ug pGL3(CAGA)12 or pGL3(CAGA)12(10 ug)+pRLCMV (1 μg) and Fugene.
(§8) Day 3: Add factors (diluted into medium+0.1% BSA). Inhibitors need to be preincubated with factors for 1 hr before adding to cells. Six hrs later, cells were rinsed with PBS and lysed.
(§9) This is followed by a luciferase assay.
(§10) Activity of ActRIIB-Fc proteins and GDF traps was tested in a cell-based assay as described above. Some variants were tested in different C-terminal truncation constructs. As discussed above, truncations of five or fifteen amino acids caused reduction in activity.

[17] = target: T1, GDF11; assay: Biacore assay, receptor captured with anti-hFc antibody, GDF11 injected; format: binding; details: receptor captured via anti-hFc antibody
Description: as §3, §4

[18] = target: T1, GDF11; assay: A-204 reporter gene assay, inhibition of GDF-11 signaling; format: cell-based; parameters: host or cells: added to A-204 cells (human rhabdomyosarcoma)
From the text: as §5, §6, §7, §8, §9, §10

[19] = system: activin; details: see U.S. Pat. No. 7,842,663; cited from earlier work
[20] = target: T1, GDF11; details: see U.S. Pat. No. 7,842,663; cited from earlier work

**Q.** Which results are given for “ActRIIB(L79D 25-131)-hFc: GDF trap with truncated ActRIIB extracellular domain (residues 25-131, L79D) fused to human Fc, SEQ ID NO: 50, 53”?
**A.** GDF11 binding, in words [1]: nearly full retention; binding to BMP10, in words [2]: strong to intermediate; activin A binding, in words [3]: pronounced loss; binding to GDF8, in words [4]: strong to intermediate; activin B binding, in words [5]: partial loss; binding to BMP6, in words [6]: strong to intermediate

**Q.** What does the source list for “ActRIIB(25-131)-hFc: human ActRIIB extracellular domain residues 25-131 fused to human Fc via three glycine residues, mature SEQ ID NO: 28”?
**A.** GDF11 binding, in words [1]: high affinity; activin A binding, in words [3]: high affinity; activin B binding, in words [5]: high affinity

**Q.** What does the source list for N#CC[C@H](C1CCCC1)n1cc(-c2ncnc3[nH]ccc23)cn1 [ruxolitinib]?
**A.** decrease of hemoglobin levels compared to control animals [7]: ~4%; decrease of red blood cell levels compared to control animals [7]: ~4%

**Q.** Which anemia response rate [8] does the source give for C#C[C@]1(O)CC[C@H]2[C@@H]3CCC4=Cc5oncc5C[C@]4(C)[C@H]3CC[C@@]21C [danazol] here?
**A.** around 20%

B1: K74A: soluble ActRIIB-Fc variant K74A, data from WO2006/012627 (protein)
chain: SGRGEAETRECIYYNANWELERTNQSGLERCEGEQDKRLHCYASWANSSGTIELVAKGCWLDDFNCYDRQECVATEENPQVYFCCCEGNFCNERFTHLPEA
modifications: left off: a dimerising Fc or GST
**Q.** For B1, which “GDF11 binding relative to WT” value [9] is on record?
**A.** +++++ (~40x increased binding)

B2: ActRIIB(20-134)-Fc: ActRIIB-Fc fusion protein containing amino acids 20-134 of SEQ ID NO: 1 (protein)
chain: GRGEAETRECIYYNANWELERTNQSGLERCEGEQDKRLHCYASWRNSSGTIELVKKGCWLDDFNCYDRQECVATEENPQVYFCCCEGNFCNERFTHLPEAGGPEVTYEPPPTAPT
modifications: Fc fusion partner without entry
**Q.** With B2 as the molecule, how does the serum half-life [10] read?
**A.** approximately 70 hours

B3: A64 20-134: ActRIIB-Fc fusion protein, residues 20-134, alanine at position 64 (protein)
chain: B2 chain with R45A
modifications: Fc fusion partner without entry
**Q.** Which “affinity for GDF11, in words” value [11] does the source give for B3 here?
**A.** relatively low affinity

**Q.** And the “affinity for activin, in words” value [12]?
**A.** relatively low affinity

B4: ActRIIB(20-134)-hFc: extracellular domain of human ActRIIB (20-134, R64) fused to human Fc with three-glycine linker, SEQ ID NO: 24 (protein)
chain: GRGEAETRECIYYNANWELERTNQSGLERCEGEQDKRLHCYASWRNSSGTIELVKKGCWLDDFNCYDRQECVATEENPQVYFCCCEGNFCNERFTHLPEAGGPEVTYEPPPTAPTGGGTHTCPPCPAPELLGGPSVFLFPPKPKDTLMISRTPEVTCVVVDVSHEDPEVKFNWYVDGVEVHNAKTKPREEQYNSTYRVVSVLTVLHQDWLNGKEYKCKVSNKALPVPIEKTISKAKGQPREPQVYTLPPSREEMTKNQVSLTCLVKGFYPSDIAVEWESNGQPENNYKTTPPVLDSDGSFFLYSKLTVDKSRWQQGNVFSCSVMHEALHNHYTQKSLSLSPGK
**Q.** Which results are given for B4?
**A.** inhibition of GDF-8 activity, in words [13]: potent inhibitor; Koff (1/s), GDF8 [14]: 3.45e-05 s⁻¹; Koff (1/s), Activin A [15]: 0.000159 s⁻¹; Kon (1/Ms), Activin A [15]: 5.94e+06 M⁻¹ s⁻¹; affinity for GDF11, in words [11]: low nanomolar to high picomolar range; inhibition of activin A activity, in words [16]: potent inhibitor; Koff (1/s), GDF11 [17]: 0.000113 s⁻¹; affinity for activin, in words [12]: low nanomolar to high picomolar range; inhibition of GDF-11 activity, in words [18]: potent inhibitor

B5: ActRIIB(20-119)-Fc: ActRIIB-Fc fusion protein containing amino acids 20-119 of SEQ ID NO: 1 (protein)
chain: GRGEAETRECIYYNANWELERTNQSGLERCEGEQDKRLHCYASWRNSSGTIELVKKGCWLDDFNCYDRQECVATEENPQVYFCCCEGNFCNERFTHLPEA
modifications: Fc fusion, Fc no entry
**Q.** With B5 as the molecule, how does the “binding to activin relative to ActRIIB(20-134)-Fc” value [19] read?
**A.** reduced

**Q.** What about the “binding to GDF11 relative to ActRIIB(20-134)-Fc” value [20] of the same molecule?
**A.** reduced
